From patent US20040002059A1 (Boehringer Ingelheim, published 2004)
Residue numbers refer to the chain shown, from its start. In names and notes the source's numbering stands.

What was measured:
[1] = biological target: N-terminally truncated HPV-11 E1 (E1*, amino acids 72-649) (human papilloma virus type 11 (HPV-11)) (UniProt P04014); experiment: cell-based or functional assay
[2] = biological target: T1, HPV-11 E1 (330-649) fused to the GAL4 DNA-binding domain (BD) (human papilloma virus type 11 (HPV-11)); experiment: yeast two-hybrid, β-galactosidase activity (FIG. 1B)
T1 construct: also called larger E1 fragment (330-649)

[3] = biological target: the molecule itself; experiment: BMH cross-linking of in-vitro translated truncated proteins (FIG. 11)
[4] = biological target: the molecule itself; experiment: BMH cross-linking of 35S-labelled protein, immunoprecipitation, gel electrophoresis (FIG. 10)
[5] = biological target: the molecule itself; experiment: BMH cross-linking with ss DNA (FIG. 12B)

## thioredoxin fusion protein TRX-E1 (353-431) (from UniProt P04014 353-431)
[1]
  50% inhibitory concentration for inhibition of the binding of E1* (72-649) to the origin: 3 µM

B1: C-terminal HPV-11 E1 fragment (amino acids 435-649) fused to the GAL4 activation domain (AD) (other)
chain: DSVGNWKPIVQFLRHQNIEFIPFLSKLKLWLHGTPKKNCIAIVGPPDTGKSCFCMSLIKFLGGTVISYVNSCSHFWLQPLTDAKVALLDDATQPCWTYMDTYMRNLLDGNPMSIDRKHRALTLIKCPPLLVTSNIDISKEEKYKYLHSRVTTFTFPNPFPFDRNGNAVYELSDANWKCFFERLSSSLDIEDSEDEEDGSNSQAFRCVPGSVVRTL
notes: also called E1 (435-649)
[2]
  binding result: no binding

B2: truncated HPV-11 E1 (191-649) made by in-vitro translation (enzyme)
chain: DTSGILELLKCKDIRSTLHGKFKDCFGLSFVDLIRPFKSDRTTCADWVVAGFGIHHSIADAFQKLIEPLSLYAHIQWLTNAWGMVLLVLIRFKVNKSRCTVARTLGTLLNIPENHMLIEPPKIQSGVAALYWFRTGISNASTVIGEAPEWITRQTVIEHSLADSQFKLTEMVQWAYDNDICEESEIAFEYAQRGDFDSNARAFLNSNMQAKYVKDCAIMCRHYKHAEMKKMSIKQWIKYRGTKVDSVGNWKPIVQFLRHQNIEFIPFLSKLKLWLHGTPKKNCIAIVGPPDTGKSCFCMSLIKFLGGTVISYVNSCSHFWLQPLTDAKVALLDDATQPCWTYMDTYMRNLLDGNPMSIDRKHRALTLIKCPPLLVTSNIDISKEEKYKYLHSRVTTFTFPNPFPFDRNGNAVYELSDANWKCFFERLSSSLDIEDSEDEEDGSNSQAFRCVPGSVVRTL
notes: also called E1 protein comprised of amino acids 191-649
[3]
  binding result: binds

B3: truncated HPV-11 E1 (330-649) made by in-vitro translation (enzyme)
chain: ASTVIGEAPEWITRQTVIEHSLADSQFKLTEMVQWAYDNDICEESEIAFEYAQRGDFDSNARAFLNSNMQAKYVKDCAIMCRHYKHAEMKKMSIKQWIKYRGTKVDSVGNWKPIVQFLRHQNIEFIPFLSKLKLWLHGTPKKNCIAIVGPPDTGKSCFCMSLIKFLGGTVISYVNSCSHFWLQPLTDAKVALLDDATQPCWTYMDTYMRNLLDGNPMSIDRKHRALTLIKCPPLLVTSNIDISKEEKYKYLHSRVTTFTFPNPFPFDRNGNAVYELSDANWKCFFERLSSSLDIEDSEDEEDGSNSQAFRCVPGSVVRTL
[3]
  binding result: binds

B4: truncated HPV-11 E1 (353-649) made by in-vitro translation (enzyme)
chain: DSQFKLTEMVQWAYDNDICEESEIAFEYAQRGDFDSNARAFLNSNMQAKYVKDCAIMCRHYKHAEMKKMSIKQWIKYRGTKVDSVGNWKPIVQFLRHQNIEFIPFLSKLKLWLHGTPKKNCIAIVGPPDTGKSCFCMSLIKFLGGTVISYVNSCSHFWLQPLTDAKVALLDDATQPCWTYMDTYMRNLLDGNPMSIDRKHRALTLIKCPPLLVTSNIDISKEEKYKYLHSRVTTFTFPNPFPFDRNGNAVYELSDANWKCFFERLSSSLDIEDSEDEEDGSNSQAFRCVPGSVVRTL
notes: also called residues 353-649 of E1
[3]
  binding result: binds

B5: N-terminally truncated HPV-11 E1 (E1*, amino acids 72-649) (enzyme)
chain: ADAHYATVQDLKRKYLGSPYVSPISNVANAVESEISPRLDAIKLTTQPKKVKRRLFETRELTDSGYGYSEVEAATQVEKHGDPENGGDGEERDTGRDIEGEGVEHREAEAVDDSTREHADTSGILELLKCKDIRSTLHGKFKDCFGLSFVDLIRPFKSDRTTCADWVVAGFGIHHSIADAFQKLIEPLSLYAHIQWLTNAWGMVLLVLIRFKVNKSRCTVARTLGTLLNIPENHMLIEPPKIQSGVAALYWFRTGISNASTVIGEAPEWITRQTVIEHSLADSQFKLTEMVQWAYDNDICEESEIAFEYAQRGDFDSNARAFLNSNMQAKYVKDCAIMCRHYKHAEMKKMSIKQWIKYRGTKVDSVGNWKPIVQFLRHQNIEFIPFLSKLKLWLHGTPKKNCIAIVGPPDTGKSCFCMSLIKFLGGTVISYVNSCSHFWLQPLTDAKVALLDDATQPCWTYMDTYMRNLLDGNPMSIDRKHRALTLIKCPPLLVTSNIDISKEEKYKYLHSRVTTFTFPNPFPFDRNGNAVYELSDANWKCFFERLSSSLDIEDSEDEEDGSNSQAFRCVPGSVVRTL
notes: Made by coupled in vitro transcription/translation in rabbit reticulocyte lysate; 35S-labelled in the cross-linking assay; Forms up to hexamers; also called E1 (72-649); E1* (72-649)
[4]
  binding result: binds

B6: E1* (72-649) F509A (enzyme)
chain: B5 chain with F438A
[5]
  binding result: binds
